According to patent US20260201064A1 (ISU ABXIS, published 2026):
Read-outs that look alike come from different tables or passages of the source.

T1: recombinant human ASM protein (human, UniProt P17405 47-630)
T1 construct: Recombinant human ASM in solution; also called acid sphingomyelinase (ASM) protein
T1 sequence: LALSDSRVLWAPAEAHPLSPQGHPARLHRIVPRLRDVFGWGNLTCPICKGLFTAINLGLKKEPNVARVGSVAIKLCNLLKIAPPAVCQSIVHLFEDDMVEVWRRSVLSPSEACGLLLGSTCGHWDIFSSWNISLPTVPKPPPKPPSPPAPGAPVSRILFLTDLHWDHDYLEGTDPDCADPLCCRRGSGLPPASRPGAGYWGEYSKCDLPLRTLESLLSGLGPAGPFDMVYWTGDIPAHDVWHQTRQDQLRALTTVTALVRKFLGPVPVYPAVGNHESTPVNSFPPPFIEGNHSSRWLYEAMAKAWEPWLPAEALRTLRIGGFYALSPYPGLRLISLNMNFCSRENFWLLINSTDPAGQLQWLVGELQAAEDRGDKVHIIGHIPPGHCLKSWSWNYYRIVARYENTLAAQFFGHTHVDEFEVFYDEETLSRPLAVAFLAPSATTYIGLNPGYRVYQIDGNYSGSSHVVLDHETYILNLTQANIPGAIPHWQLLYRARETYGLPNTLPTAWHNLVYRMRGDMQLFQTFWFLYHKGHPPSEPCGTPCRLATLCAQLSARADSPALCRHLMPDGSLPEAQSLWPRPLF


Columns and labels:
[1] = target: T1, recombinant human ASM protein; test: BLI (Octet), antibody on AHC sensor
Experimental: (§1) The binding affinity, to the ASM protein, of the produced antibodies specifically binding to the ASM protein and the interactive dynamics therebetween were measured using an Octet® QK384 system (Pall Life Sciences).
(§2) First, an antibody specifically binding to the ASM protein produced in Example 1 was captured using an anti-human IgG Fc capture (AHC) biosensor, and 1.25, 2.5, 5, 10, or 20 nM recombinant human ASM protein solution was added thereto. […] The association constant (Kₐ), dissociation constant (Kd), and equilibrium dissociation constant (KD) for each antibody were determined using Octet® analysis software (Pall Life® Sciences). As a result, the binding affinities, to the human ASM protein, of the antibodies with mutations in the heavy chain CDR regions of the antibody #9104 as depicted in Table 1 are shown in Table 5, and the binding affinities, to the human ASM protein, of the antibodies with mutations of the light chain CDR regions in the antibody #9104 as depicted in Table 2 are shown in Table 6.
After the small-scale expression in the ExpiCHO cell line as described above, the binding affinity to the human ASM protein was investigated as described in Experimental Example 1. Specifically, the antibody produced by a combination of #9104v-H33 heavy chain variable region and #9104v-L23 light chain variable region was not expressed and thus excluded in the analysis of binding affinity to ASM protein.

[2] = target: T1, recombinant human ASM protein; test: BLI (Octet), antibody on AHC sensor; remark: listed apart in the source
Experimental: as §1, §2

Binder | Kd [1] [nM] | koff [1] [s⁻¹] | kon [1] [M⁻¹ s⁻¹] | Kd [2] [nM] | koff [2] [s⁻¹] | kon [2] [M⁻¹ s⁻¹]
#9104a-D6 (antibody, human IgG4 S228P, lambda, V domains shown, VH of #9104v-H27 with VL of #9104v-L64; full-length IgG, lambda) VH: EVQLLESGGGLVQPGGSLRLSCAASGFTFSNYYMSWVRQAPGKGLEWVSGTYYDSGYVYYADSVKGRFTISRDNSKNTLYLQMNSLRAEDTAVYYCARDTPGFDYWGQGTLVTVSS VL: QSVLTQPPSASGTPGQRVTISCTGSSSNIGNNAVNWYQQLPGTAPKLLIYYDYFSHSGVPDRFSGSKSGTSASLAISGLRSEDEADYYCGAWDYSLSAYVFGGGTKLTVLG | 1.07 | 8.7e-05 | 81200 | – | – | –
#9104a-E4 (antibody, human IgG4 S228P, lambda, V domains shown, VH of #9104v-H17 with VL of #9104v-L65; full-length IgG, lambda) VH: EVQLLESGGGLVQPGGSLRLSCAASGFTFSNYYMSWVRRAPGKGLEWVSGIYYGSGTPYYAASVKGRFTISRDNSKNTLYLQMNSLRAEDTAVYYCARDTPGFDYWGQGTLVTVSS VL: QSVLTQPPSASGTPGQRVTISCTGSSSNIGNNAVNWYQQLPGTAPKLLIYYDYYQSSGVPDRFSGSKSGTSASLAISGLRSEDEADYYCGAWDYSLSAYVFGGGTKLTVLG | 0.197 | 4.15e-05 | 210000 | – | – | –
#9104a-E3 (antibody, human IgG4 S228P, lambda, V domains shown, VH of #9104v-H13 with VL of #9104v-L65; full-length IgG, lambda) VH: EVQLLESGGGLVQPGGSLRLSCAASGFTFSNYYMSWVRQAPGKGLEWVSGIYYGSGIPYYANSVKGRFTISRDNSKNTLYLQMNSLRAEDTAVYYCARDTPGFDYWGQGTLVTVSS VL: QSVLTQPPSASGTPGQRVTISCTGSSSNIGNNAVNWYQQLPGTAPKLLIYYDYYQSSGVPDRFSGSKSGTSASLAISGLRSEDEADYYCGAWDYSLSAYVFGGGTKLTVLG | 0.28 | 5.74e-05 | 205000 | – | – | –
#9104a-E8 (antibody, human IgG4 S228P, lambda, V domains shown, VH of #9104v-H33 with VL of #9104v-L65; full-length IgG, lambda) VH: EVQLLESGGGLVQPGGSLRLSCAASGFTFSNYYMSWVRQAPGKGLEWVSGVYYPSGNPYYADSVKGRFTISRDNSKNTLYLQMNSLRAEDTAVYYCARDTPGFDYWGQGTLVTVSS VL: QSVLTQPPSASGTPGQRVTISCTGSSSNIGNNAVNWYQQLPGTAPKLLIYYDYYQSSGVPDRFSGSKSGTSASLAISGLRSEDEADYYCGAWDYSLSAYVFGGGTKLTVLG | 0.38 | 5.66e-05 | 149000 | – | – | –
#9104v-L12 (antibody, human IgG4 S228P, lambda, V domains shown, Full-length IgG, lambda) VH: EVQLLESGGGLVQPGGSLRLSCAASGFTFSNYYMSWVRQAPGKGLEWVSGIYYGSGNIYYADSVKGRFTISRDNSKNTLYLQMNSLRAEDTAVYYCARDTPGFDYWGQGTLVTVSS VL: QSVLTQPPSASGTPGQRVTISCTGSSSNIGNNAVNWYQQLPGTAPKLLIYYDIFRPDGVPDRFSGSKSGTSASLAISGLRSEDEADYYCGAWDYSLSAYVFGGGTKLTVLG | – | – | – | 0.718 | 0.000159 | 221000
#9104v-L11 (antibody, human IgG4 S228P, lambda, V domains shown, Full-length IgG, lambda) VH: EVQLLESGGGLVQPGGSLRLSCAASGFTFSNYYMSWVRQAPGKGLEWVSGIYYGSGNIYYADSVKGRFTISRDNSKNTLYLQMNSLRAEDTAVYYCARDTPGFDYWGQGTLVTVSS VL: QSVLTQPPSASGTPGQRVTISCTGSSSNIGNNAVNWYQQLPGTAPKLLIYYDIFQPSGVPDRFSGSKSGTSASLAISGLRSEDEADYYCGAWDYSLSAYVFGGGTKLTVLG | – | – | – | 0.768 | 0.000199 | 259000
#9104a-E2 (antibody, human IgG4 S228P, lambda, V domains shown, VH of #9104v-H11 with VL of #9104v-L65; full-length IgG, lambda) VH: EVQLLESGGGLVQPGGSLRLSCAASGFTFSNYYMSWVRQAPGKGLEWVSGIYYGSGIPYYADSVKERFTISRDNSKNTLYLQMNSLRAEDTAVYYCARDTPGFDYWGQGTLVTVSS VL: QSVLTQPPSASGTPGQRVTISCTGSSSNIGNNAVNWYQQLPGTAPKLLIYYDYYQSSGVPDRFSGSKSGTSASLAISGLRSEDEADYYCGAWDYSLSAYVFGGGTKLTVLG | 0.212 | 4.27e-05 | 202000 | – | – | –
#9104a-D8 (antibody, human IgG4 S228P, lambda, V domains shown, VH of #9104v-H33 with VL of #9104v-L64; full-length IgG, lambda) VH: EVQLLESGGGLVQPGGSLRLSCAASGFTFSNYYMSWVRQAPGKGLEWVSGVYYPSGNPYYADSVKGRFTISRDNSKNTLYLQMNSLRAEDTAVYYCARDTPGFDYWGQGTLVTVSS VL: QSVLTQPPSASGTPGQRVTISCTGSSSNIGNNAVNWYQQLPGTAPKLLIYYDYFSHSGVPDRFSGSKSGTSASLAISGLRSEDEADYYCGAWDYSLSAYVFGGGTKLTVLG | 0.177 | 3.33e-05 | 188000 | – | – | –
#9104a-D7 (antibody, human IgG4 S228P, lambda, V domains shown, VH of #9104v-H31 with VL of #9104v-L64; full-length IgG, lambda) VH: EVQLLESGGGLVQPGGSLRLSCAASGFTFSNYYMSWVRQAPGKGLEWVSGVYYGSGTPYYADSVKGRFTISRDNSKNTLYLQMNSLRAEDTAVYYCARDTPGFDYWGQGTLVTVSS VL: QSVLTQPPSASGTPGQRVTISCTGSSSNIGNNAVNWYQQLPGTAPKLLIYYDYFSHSGVPDRFSGSKSGTSASLAISGLRSEDEADYYCGAWDYSLSAYVFGGGTKLTVLG | 0.198 | 5.69e-05 | 288000 | – | – | –
#9104a-E1 (antibody, human IgG4 S228P, lambda, V domains shown, VH of #9104v-H10 with VL of #9104v-L65; full-length IgG, lambda) VH: EVQLLESGGGLVQPGGSLRLSCAASGFTFSNYYMSWVRQAPGKGLEWVSGIYYGNGIPYYADSVKDRFTISRDNSKNTLYLQMNSLRAEDTAVYYCARDTPGFDYWGQGTLVTVSS VL: QSVLTQPPSASGTPGQRVTISCTGSSSNIGNNAVNWYQQLPGTAPKLLIYYDYYQSSGVPDRFSGSKSGTSASLAISGLRSEDEADYYCGAWDYSLSAYVFGGGTKLTVLG | 0.289 | 6.21e-05 | 215000 | – | – | –
#9104v-L15 (antibody, human IgG4 S228P, lambda, V domains shown, Full-length IgG, lambda) VH: EVQLLESGGGLVQPGGSLRLSCAASGFTFSNYYMSWVRQAPGKGLEWVSGIYYGSGNIYYADSVKGRFTISRDNSKNTLYLQMNSLRAEDTAVYYCARDTPGFDYWGQGTLVTVSS VL: QSVLTQPPSASGTPGQRVTISCTGSSSNIGNNAVNWYQQLPGTAPKLLIYYDIHRPYGVPDRFSGSKSGTSASLAISGLRSEDEADYYCGAWDYSLSAYVFGGGTKLTVLG | – | – | – | 0.992 | 0.000273 | 275000
#9104a-E7 (antibody, human IgG4 S228P, lambda, V domains shown, VH of #9104v-H31 with VL of #9104v-L65; full-length IgG, lambda) VH: EVQLLESGGGLVQPGGSLRLSCAASGFTFSNYYMSWVRQAPGKGLEWVSGVYYGSGTPYYADSVKGRFTISRDNSKNTLYLQMNSLRAEDTAVYYCARDTPGFDYWGQGTLVTVSS VL: QSVLTQPPSASGTPGQRVTISCTGSSSNIGNNAVNWYQQLPGTAPKLLIYYDYYQSSGVPDRFSGSKSGTSASLAISGLRSEDEADYYCGAWDYSLSAYVFGGGTKLTVLG | 0.211 | 4.59e-05 | 218000 | – | – | –
#9104v-L19 (antibody, human IgG4 S228P, lambda, V domains shown, Full-length IgG, lambda) VH: EVQLLESGGGLVQPGGSLRLSCAASGFTFSNYYMSWVRQAPGKGLEWVSGIYYGSGNIYYADSVKGRFTISRDNSKNTLYLQMNSLRAEDTAVYYCARDTPGFDYWGQGTLVTVSS VL: QSVLTQPPSASGTPGQRVTISCTGSSSNIGNNAVNWYQQLPGTAPKLLIYYDLFRPSGVPDRFSGSKSGTSASLAISGLRSEDEADYYCGAWDYSLSAYVFGGGTKLTVLG | – | – | – | 1.03 | 0.000238 | 231000
#9104a-E6 (antibody, human IgG4 S228P, lambda, V domains shown, VH of #9104v-H27 with VL of #9104v-L65; full-length IgG, lambda) VH: EVQLLESGGGLVQPGGSLRLSCAASGFTFSNYYMSWVRQAPGKGLEWVSGTYYDSGYVYYADSVKGRFTISRDNSKNTLYLQMNSLRAEDTAVYYCARDTPGFDYWGQGTLVTVSS VL: QSVLTQPPSASGTPGQRVTISCTGSSSNIGNNAVNWYQQLPGTAPKLLIYYDYYQSSGVPDRFSGSKSGTSASLAISGLRSEDEADYYCGAWDYSLSAYVFGGGTKLTVLG | 1.19 | 7.77e-05 | 65500 | – | – | –
#9104a-E5 (antibody, human IgG4 S228P, lambda, V domains shown, VH of #9104v-H19 with VL of #9104v-L65; full-length IgG, lambda) VH: EVQLLESGGGLVQPGGSLRLSCAASGFTFSNYYMSWVRQAPGKGLEWVSGIYYGSGVPYYADSVKGRFTISRDNSKNTLYLQMNSLRAEDTAVYYCARDTPGFDYWGQGTLVTVSS VL: QSVLTQPPSASGTPGQRVTISCTGSSSNIGNNAVNWYQQLPGTAPKLLIYYDYYQSSGVPDRFSGSKSGTSASLAISGLRSEDEADYYCGAWDYSLSAYVFGGGTKLTVLG | 0.273 | 6.36e-05 | 234000 | – | – | –
